Test results as given in patent US20140271701A1.

Biological target: serum antibodies (IgG) of Sardinian T1D patients, Example 1 (n=34; Ab+ sera) (human)
Assay: competition ELISA on MAP3865c125-133-coated plates, sera pre-adsorbed with saturating peptide

B1: MAP3865c125-133 peptide (…) (peptide)
peptide: MIAVALAGL
percent inhibition: 57 to 89%
